The text below walks through data of article PMC3594340 (Journal of the American Society for Mass Spectrometry, 2013).

The series deals with the molecule itself. In words: cross-linking.

B1: SO_2176 from Shewanella oneidensis (natural protein)
chain: MAIQSKYSNTQVESLIAEILVVLEKHKAPTDLSLMALGNCVTHLLERKVPSESRQAVAEQFAKALAQSVKSN
Consider B1, for which the binding result is “binds”.
